We go through 3 molecules from patent publication US20250296995A1.

For this assay, the target named is recombinant Plasmodium falciparum circumsporozoite protein (CSP) (Plasmodium falciparum) (UniProt P19597). The assay is described as follows: cell-based or functional assay.
recombinant Plasmodium falciparum circumsporozoite protein (CSP) (Plasmodium falciparum), sequence (P19597 21-375 limits assumed): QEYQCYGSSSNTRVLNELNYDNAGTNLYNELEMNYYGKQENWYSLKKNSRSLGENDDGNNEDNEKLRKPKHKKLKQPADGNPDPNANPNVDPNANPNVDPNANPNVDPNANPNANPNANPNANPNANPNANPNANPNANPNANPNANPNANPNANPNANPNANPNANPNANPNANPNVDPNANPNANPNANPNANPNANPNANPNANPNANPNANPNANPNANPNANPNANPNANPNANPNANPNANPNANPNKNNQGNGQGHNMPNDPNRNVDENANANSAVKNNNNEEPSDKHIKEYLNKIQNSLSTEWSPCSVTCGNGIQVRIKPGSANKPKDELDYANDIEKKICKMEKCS

B1: AB-000338 ALE LS (antibody, human IgG1, kappa, V domains shown)
VH: QVQLVESGGGVVQPGRSLRLSCAASGFSFSTYGMHWIRQVPGKGLEWVAIIWHDGSKEFYADSVKGRFTISRDNSKKKLYLQMNSLRAEDTAIYYCVKDDFDSSGHSYFHYWGQGTLVTVSS
VL: GVVMTQSPLSLPVTLGQPASISCRSSQSLVHSDGNTYVHWFQQRPGQSPRRLIYKVSNRDSGVPDRFSGSGSGTDFTLKISRVEAEDVGVYYCMQGTQWWTFGQGTKVEIKR
As to B1, the Geo Mean EC50 (ug/ml), ADNKA, Donor 1 stood at 0.0035 µg/mL; the Geo Mean EC50 (ug/ml), ADNKA, Donor 2 stood at 0.0037 µg/mL; the Geo Mean EC50 (ug/ml), ADNKA, Donor 3 is 0.0802 µg/mL; the Geo Mean EC50 (ug/ml), ADNKA, Donor 4 was found to be 0.0214 µg/mL. In addition, the GeoMean EC50 (M), ADCP is 1.18e-11 M; the GeoMean EC50 (M), ADCP repeat, n=4 came out at 6.55e-12 M; the Mean EC50 (pM), ADCP was 11.8 pM; the Mean EC50 (pM), ADCP repeat, n=4 stood at 6.6 pM. Moreover, the Mean pEC50, ADCP amounted to 10.9 and the Mean pEC50, ADCP repeat, n=4 came to 11.2.

B2: AB-000338 DEA FV LS (antibody, V domains shown)
VH: B1 VH
VL: GVVMTQSPLSLPVTLGQPASISCRSSQSLVHSDGNTYVHWFQQRPGQSPRRLIYKVSNRDSGVPDRFSGSGSGTDFTLKISRVEAEDVGVYYCMQGTQWWTFGQGTKVEIK
Turning to B2, the Geo Mean EC50 (ug/ml), ADNKA, Donor 1 stood at 0.0087 µg/mL; the Geo Mean EC50 (ug/ml), ADNKA, Donor 2 amounted to 0.0057 µg/mL; the Geo Mean EC50 (ug/ml), ADNKA, Donor 3 came to 0.0272 µg/mL; the Geo Mean EC50 (ug/ml), ADNKA, Donor 4 was 0.0067 µg/mL. The GeoMean EC50 (M), ADCP was 7.21e-12 M; the Mean EC50 (pM), ADCP was 7.2 pM; the Mean pEC50, ADCP was found to be 11.1.

B3: AB-000338 LS (antibody, V domains shown)
VH: B1 VH
VL: B2 VL
Turning to B3, the Geo Mean EC50 (ug/ml), ADNKA, Donor 1 stood at 0.0301 µg/mL; the Geo Mean EC50 (ug/ml), ADNKA, Donor 2 was determined as 0.238 µg/mL; the Geo Mean EC50 (ug/ml), ADNKA, Donor 3 was found to be 0.171 µg/mL; the Geo Mean EC50 (ug/ml), ADNKA, Donor 4 stood at 0.0887 µg/mL. For the same molecule, the GeoMean EC50 (M), ADCP amounted to 9.19e-12 M; the GeoMean EC50 (M), ADCP repeat, n=4 amounted to 1.08e-11 M; the Mean EC50 (pM), ADCP amounted to 9.2 pM; the Mean EC50 (pM), ADCP repeat, n=4 stood at 10.8 pM. The Mean pEC50, ADCP was 11 and the Mean pEC50, ADCP repeat, n=4 is 11.
